One test deals with HLA-B7 (B*0702), chimeric heavy chain with HLA-B*0702 α1 and α2 domains and H-2Kd murine α3 domain, (human; mouse), B*07:0. Briefly: cell-based or functional assay.
Turning to “PB2 500-516 peptide of influenza virus A/New York/348/2003 (H1N1)”, the IFN-γ ELISpot at 10 µg/ml peptide, splenocytes of immunized HLA transgenic mice was 184 and the lowest concentration of peptide giving positive ELISpot response was found to be 0.1 µg/mL.

“PB1 328-344 peptide of influenza virus A/New York/348/2003 (H1N1)” showed an IFN-γ ELISpot at 10 µg/ml peptide, splenocytes of immunized HLA transgenic mice of 60 and a lowest concentration of peptide giving positive ELISpot response of 10 µg/mL.

For another test, the target named is HLA-DR2 (DRB1*1501), chimeric DRA1*0101:I-Eα and DRB1*1501:I-Eβ, as expressed in HLA-DR2 transgenic mice (human; mouse) (UniProt Q8BHN5). Briefly: cell-based or functional assay.
UniProt Q8BHN5, sequence (Q8BHN5 whole entry, change not shown): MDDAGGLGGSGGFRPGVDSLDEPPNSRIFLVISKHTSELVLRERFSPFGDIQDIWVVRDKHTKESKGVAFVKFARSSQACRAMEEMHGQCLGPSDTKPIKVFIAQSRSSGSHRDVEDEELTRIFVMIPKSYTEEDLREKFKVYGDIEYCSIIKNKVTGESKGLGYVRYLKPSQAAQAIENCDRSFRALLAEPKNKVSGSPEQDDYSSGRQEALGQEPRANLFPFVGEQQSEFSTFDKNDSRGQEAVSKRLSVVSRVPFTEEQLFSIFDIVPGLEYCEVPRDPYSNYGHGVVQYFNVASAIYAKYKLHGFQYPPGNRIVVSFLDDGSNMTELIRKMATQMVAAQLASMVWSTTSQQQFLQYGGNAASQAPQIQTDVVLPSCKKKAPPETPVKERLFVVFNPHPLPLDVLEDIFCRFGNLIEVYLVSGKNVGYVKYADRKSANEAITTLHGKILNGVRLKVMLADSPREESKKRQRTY
For the substance “PB2 524-540 peptide of influenza virus A/New York/348/2003 (H1N1)”, the IFN-γ ELISpot at 10 µg/ml peptide, splenocytes of immunized HLA transgenic mice turned out to be 151 and the lowest concentration of peptide giving positive ELISpot response is 0.1 µg/mL. The substance “PB2 630-646 peptide of influenza virus A/New York/348/2003 (H1N1)” came in with an IFN-γ ELISpot at 10 µg/ml peptide, splenocytes of immunized HLA transgenic mice of 104 and a lowest concentration of peptide giving positive ELISpot response of 0.1 µg/mL. “NP 133-149 peptide of influenza virus A/New York/348/2003 (H1N1)” came in with an IFN-γ ELISpot at 10 µg/ml peptide, splenocytes of immunized HLA transgenic mice of 238 and a lowest concentration of peptide giving positive ELISpot response of 0.1 µg/mL. “PB1 554-570 peptide of influenza virus A/New York/348/2003 (H1N1)” yielded an IFN-γ ELISpot at 10 µg/ml peptide, splenocytes of immunized HLA transgenic mice of 109 and a lowest concentration of peptide giving positive ELISpot response of 1 µg/mL. Substance “PB2 548-564 peptide of influenza virus A/New York/348/2003 (H1N1)” returned an IFN-γ ELISpot at 10 µg/ml peptide, splenocytes of immunized HLA transgenic mice of 96.

“PB1 352-368 peptide of influenza virus A/New York/348/2003 (H1N1)” registered an IFN-γ ELISpot at 10 µg/ml peptide, splenocytes of immunized HLA transgenic mice of 52 and a lowest concentration of peptide giving positive ELISpot response of 1 µg/mL. The like results for “PB1 519-535 peptide of influenza virus A/New York/348/2003 (H1N1)” were, in that order, 75 and 0.1 µg/mL. For “NP 408-424 peptide of influenza virus A/New York/348/2003 (H1N1)” the same measures were 110 and 1 µg/mL. The substance “PB1 560-576 peptide of influenza virus A/New York/348/2003 (H1N1)” gave an IFN-γ ELISpot at 10 µg/ml peptide, splenocytes of immunized HLA transgenic mice of 194 and a lowest concentration of peptide giving positive ELISpot response of 0.1 µg/mL. In the case of “PB1 525-541 peptide of influenza virus A/New York/348/2003 (H1N1)”, the IFN-γ ELISpot at 10 µg/ml peptide, splenocytes of immunized HLA transgenic mice worked out at 159 and the lowest concentration of peptide giving positive ELISpot response is 0.1 µg/mL. On to “PB1 465-481 peptide of influenza virus A/New York/348/2003 (H1N1)”, for which the IFN-γ ELISpot at 10 µg/ml peptide, splenocytes of immunized HLA transgenic mice amounted to 231 and the lowest concentration of peptide giving positive ELISpot response worked out at 1 µg/mL. Turning to “NP 402-418 peptide of influenza virus A/New York/348/2003 (H1N1)”, the IFN-γ ELISpot at 10 µg/ml peptide, splenocytes of immunized HLA transgenic mice is 207 and the lowest concentration of peptide giving positive ELISpot response was found to be 0.1 µg/mL. For the substance “PB1 358-374 peptide of influenza virus A/New York/348/2003 (H1N1)”, the IFN-γ ELISpot at 10 µg/ml peptide, splenocytes of immunized HLA transgenic mice amounted to 84 and the lowest concentration of peptide giving positive ELISpot response is 0.1 µg/mL. Substance “M1 169-185 peptide of influenza virus A/New York/348/2003 (H1N1)” yielded an IFN-γ ELISpot at 10 µg/ml peptide, splenocytes of immunized HLA transgenic mice of 56 and a lowest concentration of peptide giving positive ELISpot response of 0.1 µg/mL.

Source of the values: US20120294879A1, “CONSENSUS SEQUENCE FOR INFLUENZA A VIRUS” (priority 2009, published 2012).
